Substrate: Nc1ncnc2c1ncn2[C@@H]1O[C@H](COP(=O)(O)OP(=O)(O)OP(=O)(O)O)[C@@H](O)[C@H]1O
Assay: purified protein
Conditions: basal ATPase, 0.4 μM protein, 10 mM HEPES-KOH pH 7.5, 100 mM KCl, 2 mM MgCl2, 0.5 mM DTT, kcat unit as printed

B1: PfHsp70-z (Plasmodium falciparum 3D7) (protein)
chain: MSVLGIDIGNDNSVVATINKGAINVVRNDISERLTPTLVGFTEKERLIGDSALSKLKSNYKNTCRNIKNLIGKIGTDVKDDIEIHEAYGDLIPCEYNYLGYEVEYKNEKVVFSAVRVLSALLSHLIKMAEKYIGKECKEIVLSYPPTFTNCQKECLLAATKIINANVLRIISDNTAVALDYGMYRMKEFKEDNGSLLVFVNIGYANTCVCVARFFSNKCEILCDIADSNLGGRNLDNELIKYITNIFVNNYKMNPLYKNNTPELCPMGTGRLNKFLVTSTASDQQNGINNKVRIKLQEVAIKTKKVLSANNEASIHVECLYEDLDCQGSINRETFEELCSNFFLTKLKHLLDTALCISKVNIQDIHSIEVLGGSTRVPFIQNFLQQYFQKPLSKTLIADESIARGCVLSAAMVSKHYKVKEYECVEKVTHPINVEWHNINDASKSNVEKLYTRDSLKKKVKKIVIPEKGHIKLTAYYENTPDLPSNCIKELGSCIVKINEKNDKIVESHVMTTFSNYDTFTFLGAQTVTKSVIKSKDEKKKADDKTEDKGEKKDAKDQEQNDDKDQTNDNNMNEKDTNDKKEKNNETNSPNKTELKKGEEGKVQTCYTTIPIETLLAQGSYSSKDIFNFSEQEINMQHSDILEGERLKHLNELETIIYESRSRLNGIYKNFVMDDERDRILLSLDDYENWLYDNIEENKNMFIKKKEEIRDLIKNIVQKFDVYNSKQQNLGNIINHLNNIITQCSNKPSDESQNIINRTTKFLNNINSLQEQEKNKPLYEPPVYTLNDIEAEFNEVTQLAQKFFSKLEVEELAKQKAKQEKEKEKEKEKEKEKEKEKNEETNLDANEEQNNEAKNNEEKENSTKNENSANPEE
With B1 the Km was 283 (+/-3) μM and the Vmax was 0.0198 µmol/min/mg.
